The Human Domainome abundance scans (Beltran et al. 2025)

B1: Retinoic acid receptor beta, residues 85 to 161; numbered along this chain, P10826 (parent)
chain: YKPCFVCQDKSSGYHYGVSACEGCKGFFRRSIQKNMIYTCHRDKNCVINKVTRNRCQYCRLQKCFEVGMSKESVRND

Variants of: B1
Experiment: abundance fitness (aPCA) (normalised: wild type 0, dead -1); higher = more abundant; growth selection in yeast, the domain comes from the species named
Conditions: Homo sapiens

Abundance fitness of substitutions, site by site:
V67: K 0.017, A -0.012, W -0.636, M -0.063, H -0.354, R -0.291, Y -0.645, D -0.8, L -0.084, E -0.282, F -0.054, G -0.161, S -0.059, Q -0.035, C -0.172, T -0.178
C64: G -0.658, N -0.969, Q -0.426, A -0.329, I -0.729, P -0.689, T -0.769, E -0.799, D -0.996, K -0.885, L -0.734, V -0.628, S -0.461, M -0.412, Y -1.17, H -0.646, R -0.732
M69: C -0.31, N -0.725, F -0.406, P -0.917, W -0.235, K -0.983, E -0.751, V -0.591, Y -0.588, I -0.142, D -0.498, T -0.515, R -0.741, A -0.81, G -0.813
E72: C -0.075, D 0.127, S -0.037, G -0.128, T -0.004, I -0.184, L -0.237, V -0.163, P -0.101, K -0.191, A -0.113, M -0.098, Q -0.134, R -0.151, W -0.271, N 0.04, F -0.337, H -0.117
S70: L 0.071, W -0.417, G -0.184, A -0.047, E 0.039, R -0.053, M -0.115, I 0.262, T 0.067, C -0.076, V 0.038, F -0.111, Q -0.009, K 0.078, P -0.304, Y -0.291, H 0.022, D -0.085
F65: T -0.02, H -0.253, Q -0.156, A -0.291, G -0.442, K -0.081, L 0.014, M 0.026, R -0.22, S -0.31, E -0.024, Y -0.009, D -0.423, C -0.197, P -0.542, I 0.119, W -0.174, N -0.128, V -0.019
K71: R -0.102, I -0.078, L -0.027, W -0.139, G -0.004, Q -0.007, H -0.24, C -0.148, T 0.067, A -0.027, N -0.04, P -0.154, S -0.005, F -0.189, M -0.104, E 0.103, Y -0.216, V -0.151, D -0.085
E66: Y -0.136, M 0.082, I -0.092, V -0.032, F -0.036, D 0.096, C -0.153, L -0.039, R 0.011, Q -0.011, S -0.078, T 0.008, W -0.139, P -0.595, N -0.028, A -0.105, G -0.014
S73: A 0.1
K63: Q -0.305, S -0.443, P -0.847, Y -0.37, R -0.041, N -0.519, W -0.772, T -0.11
G68: H -0.743, K -0.392, P -0.738, L -0.807, F -0.204, N -0.338, Q -0.698, W -0.779, C -0.698, D -0.663, Y -1.05, T -0.687, M -0.77, R -0.681, A -0.804, S -0.595, V -0.81, E -0.763, I -0.95
